Three molecules from patent publication US20260042865A1 (Amgen, published 2026) can be followed below.

For experiment [1], the target named is T1, Mouse ASGR1 protein (R&D Systems cat #2755-AS/CF) (mouse, UniProt P34927 61-284, limits assumed).
T1 construct: Bought protein; also called muASGR1
T1 sequence (looked up): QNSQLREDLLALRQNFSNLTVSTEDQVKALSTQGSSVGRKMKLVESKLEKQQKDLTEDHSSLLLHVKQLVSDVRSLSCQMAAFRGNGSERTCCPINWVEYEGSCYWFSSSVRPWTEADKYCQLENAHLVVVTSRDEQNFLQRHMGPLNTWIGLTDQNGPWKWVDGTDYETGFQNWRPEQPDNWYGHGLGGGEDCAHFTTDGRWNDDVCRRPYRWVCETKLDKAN
As to the kind of experiment: SPR (BIAcore 3000), mouse ASGR1 immobilized, antibody analyte, pH 6, 2 uM CaCl2. The procedure: (§1) Antibodies binding to ASGR1 in a pH/Ca2+-dependent manner were screened by employing surface plasmon resonance. Antibodies were screened either at pH 7.4 with 2 mM CaCl2 or at pH 6.0 with 2 μM CaCl2 to analyze the binding to ASGR1. KD values were determined by immobilizing receptor on the chip and antibodies as analytes.
(§2) Equilibrium binding affinities of the interaction between mouse ASGR1 and anti-ASGR1 antibodies were determined using BIAcore 3000. Mouse ASGR1 protein was obtained from R&D-systems (cat #2755-AS/CF) and immobilized on CM5 chips using amine coupling chemistry to a density of ˜1500 RU. On each CM5 chip a reference flow cell is used which was coupled with coupling buffer only. Antibodies were injected over immobilized ASGR1 at a concentration range of 1000 nM-0.2 nM, with a two-fold serial dilution. To determine pH/Ca-sensitive binding, runs were performed using phosphate buffered saline (PBS) with 0.01% (v/v) Tween20 and 0.05% azide with either pH 7.4/2 mM calcium chloride or pH 6.0/2 μM calcium chloride. The chip was regenerated using 0.15 M NaCl, 0.1 M glycine pH 1.5 buffer between each injection cycles. Equilibrium dissociation constants were determined using 1:1 interaction model using BIAevaluation.

For experiment [2], the target named is T1, Mouse ASGR1 protein (R&D Systems cat …). As to the kind of experiment: SPR (BIAcore 3000), mouse ASGR1 immobilized, antibody analyte, pH 7.4, 2 mM CaCl2. The protocol:
as §1, §2
(Surface plasmon resonance follows binding to a sensor surface in real time, without labels.)

For experiment [3] the target is unchanged. As to the kind of experiment: SPR (BIAcore 3000), mouse ASGR1 immobilized, pH 7.4 with 2 mM Ca2+; pH 7.4 with 2 mM Ca2+; Table 3 experiment (comparison with bispecific scFv). The protocol:
(§3) The binding of anti-ASGR1 antibodies binding ASGR1 in a pH/Ca2+ dependent or independent manner was assessed by BIAcore. Equilibrium binding affinities of the interaction between (i) mouse or human ASGR1 and anti-ASGR1 antibodies; and (ii) mouse or human ASGR1 and bispecific scFv molecules of the present inventions were determined using BIAcore 3000. Mouse and human ASGR1 proteins were obtained from R&D-systems (cat #2755-AS/CF and 4394-AS/CF, respectively) and immobilized on CM5 chips using amine coupling chemistry to a density of ˜1500 RU. On each CM5 chip a reference flow cell is used which was coupled with coupling buffer only. Antibodies were injected over immobilized ASGR1 at a concentration range of 1000 nM-0.2 nM, with a two-fold serial dilution. To determine pH/Ca-sensitive binding, runs were performed using phosphate buffered saline (PBS) with 0.01% (v/v) Tween20 and 0.05% azide with either pH 7.4/2 mM calcium chloride or pH 6.0/2 μM calcium chloride. The chip was regenerated using 0.15 M NaCl, 0.1 M glycine pH 1.5 buffer between each injection cycles. Equilibrium dissociation constants were determined using 1:1 interaction model using BIAevaluation.

Experiment [4] has as its target T2, Human ASGR1 protein (R&D Systems cat #4394-AS/CF) (human, UniProt P07306 62-291).
T2 construct: Bought protein; also called huASGR1
T2 sequence (looked up): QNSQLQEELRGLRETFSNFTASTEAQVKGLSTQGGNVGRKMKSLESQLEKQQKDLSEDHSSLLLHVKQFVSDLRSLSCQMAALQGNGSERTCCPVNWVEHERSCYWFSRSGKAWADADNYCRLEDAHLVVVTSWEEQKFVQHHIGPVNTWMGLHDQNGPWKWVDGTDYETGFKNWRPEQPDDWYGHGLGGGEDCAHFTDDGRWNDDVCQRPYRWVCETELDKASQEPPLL
As to the kind of experiment: SPR (BIAcore 3000), human ASGR1 immobilized, pH 7.4 with 2 mM Ca2+. The procedure: as §3

Experiment [5] has as its target T1, Mouse ASGR1 protein (R&D Systems cat …). As to the kind of experiment: SPR (BIAcore 3000), mouse ASGR1 immobilized, antibody analyte, pH 7.4, 2 mM CaCl2; pH 7.4, 2 mM CaCl2; Table 1 experiment.
For experiment [6] the target is unchanged. As to the kind of experiment: SPR (BIAcore 3000), mouse ASGR1 immobilized, pH 7.4 with 2 mM Ca2+. The protocol: as §3

B1: Non-catabolic anti-ASGR1 antibody (antibody, human IgG1, kappa, N297G, V domains shown)
VH: EVQLVESGGGLVQPGRSLKLSCAASGFTFSDYNMAWVRQAPKKGLEWVATIIYDGGSTYYRHSVKGRFTISRDNAKSTHSLQMDSLRSEDTATYYCARQTYFGSRDYFDYWGQGVMVTVSS
VL: DIQMTQSPTSLSASLGETVSIECLTSEDIYNNLAWYQQKPGKSPQLLISYASNFQDGVPSRFSGSGSGTQYSLKINSLESEDAATYFCLQDSEYPPTFGGGTKLELKR
notes: also called Non-CAT-WT; non-CAT mAb
A word on the Kd: it is the equilibrium constant for the complex coming apart. The low end stands for a tighter complex, the high end for a looser complex. For B1, the Kd is 5.5 nM in experiment [1] and 6 nM in experiment [2].

B2: Catabolic anti-ASGR1 antibody (antibody, human IgG1, kappa, N297G, V domains shown)
VH: QVQLVESGGGVVQPGRSLRLSCAASGFTFSSYGMHWVRQAPGKGLEWVAVIWYDGSNKYYADSVKGRFTISRDNSKNTLYLQMNSLRAEDTAVYYCARDSSPYGMDVWGQGTTVTVSS
VL: DIQMTQSPSSVSASVGDRVTITCRASQGISSWLAWYQQKPGKAPKLLIYGASSLQSGVPSRFSASGSGTDFTLTISSLQPEDFATYYCQQSDSFPRTFGQGTKVEIKR
notes: also called CAT-WT; CAT mAb
For the molecule B2, the Kd in experiment [3] turned out to be 12.1 nM; in experiment [4], 4 nM; in experiment [5] it was 20 nM.

B3: Catabolic bispecific scFv molecule (binds ASGR1 in a catabolic manner and Ig in a non-catabolic manner) (bispecific antibody)
scFv: ELQLQQSGAELVRPGASVKLSCTTSGFNVKDTYIHWVRQRPEQGLEWIGRIDPANGNTKYDPKFQDRATITTDTSSITAYLQLSSLTSEDTAVYYCARNYGSNYDPMDYWGQGTSLTVSSGGGGSGGGGSGGGGSDILLTQSPAILSVSPGERVSFSCRASQNIDTNIHWYQRRTNDSPRLLIKYASESISGIPSRFSGSGSGTDFTLSINSVESEDIADYYCQQSDTWPWTFGGGTKLEIKRSGGGGSQVQLVESGGGVVQPGRSLRLSCAASGFTFSSYGMHWVRQAPGKGLEWVAVIWYDGSNKYYADSVKGRFTISRDNSKNTLYLQMNSLRAEDTAVYYCARDSSPYGMDVWGQGTTVTVSSGGGGSGGGGSGGGGSDIQMTQSPSSVSASVGDRVTITCRASQGISSWLAWYQQKPGKAPKLLIYGASSLQSGVPSRFSASGSGTDFTLTISSLQPEDFATYYCQQSDSFPRTFGQGTKVEIKRHHHHHH
notes: Single chain: anti-IgG scFv, SG4S linker, catabolic anti-ASGR1 scFv, C-terminal 6xHis; also called CAT bispecific scFv molecule; CAT-bispecific scFv molecule
As for B3, the figures for the Kd in experiment [4] and in experiment [6] were 23 nM and 78.3 nM, respectively.
